According to article PMC7525064, “Transcriptome Analysis of Different Tissues Reveals Key Genes Associated With Galanthamine Biosynthesis in Lycoris longituba” (Frontiers in Plant Science, 2020):

Substrate: Oc1ccc(CCNCc2ccc(O)c(O)c2)cc1
Test: purified protein
Format: biochemical, Lycoris longituba
Details: 200 μM AdoMet, 50 μM-2 mM norbelladine, 30 mM potassium phosphate pH 8.0, 30°C, 2 h

B1: LlOMT (Lycoris longituba O-Methyltransferase) (Lycoris longituba) (protein)
chain: MGASQDDYALIHKNILHSEDLLKYILETSVYPREHEQLKGLREVTEKHEWSMALVAADEGLFLSMLLKLMNAKRTIEIGVYTGYSLLTTALALPEDGKITAIDVNKSYFEIGLPFIQKAGVEHKINFIESEALPVLDQMLQEMKEEDLYDFAFVDADKPNYANYHERLVKLVRVGGAIVYDNTLWFGTVAFPEYPGLHPEEEECRVSFRNLNKLLAADPRVEISQVSIGDGLTICRRLY
With B1 the Km was 317 ± 17 µM.
